Results taken from PMC6482012.

Molecular target: p62 (SQSTM1) (UniProt Q13501)
Experiment: GST pulldown after in vitro AMPK reaction
Conditions: reference: WT GST-KHK-A without AMPK; sites S80

binding against the reference: stronger
Substance: KHK-A (fructokinase A, ketohexokinase A) (from UniProt P50053-2) WT GST-KHK-A incubated with active AMPK
